From patent US20240309093A1 (MINGHUI PHARMACEUTICAL HANGZHOU, published 2024)
Residue numbers refer to the chain shown, from its start. Like-named read-outs stand apart in the source and are kept apart here. One block for each binder: values may come before it.

Columns and labels:
[1] = molecular target: T1, recombinant human PD-1 protein (human, UniProt Q15116 25-167, limits assumed); experiment: competitive ELISA; PD-1 coated 2 µg/mL, 4 µg/mL PD-L1-Fc as competitor, anti-human IgG-HRP
T1 construct: also called recombinant human PD-1 antigen; human recombinant PD-1
T1 sequence (Q15116 25-167 limits assumed): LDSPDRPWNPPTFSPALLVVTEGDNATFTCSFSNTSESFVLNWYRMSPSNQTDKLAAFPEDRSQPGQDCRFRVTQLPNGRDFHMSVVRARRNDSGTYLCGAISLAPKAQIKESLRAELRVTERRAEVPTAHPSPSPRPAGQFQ
Procedure: Ninety-six-well plates were coated with recombinant human PD-1 antigen (2 μg/mL) at 4° C. overnight. The plates were blocked with 1% casein. […] The plates were washed with PBST between incubations.

[2] = molecular target: T2, recombinant human PD-1-his protein (human, UniProt Q15116 25-167); experiment: ELISA (first round of humanization); PD-1-his coated 2 µg/mL, anti-human IgG Fc-HRP
T2 construct: also called hPD-1-his; not shown: his tag
T2 sequence (Q15116 25-167 limits assumed): as above
Procedure: (§1) 96-well ELISA plates were coated with 2 μg/mL of recombinant human PD-1-his antigen protein at 30 μL/well at 4° C. overnight. The plates were washed three times with PBST. 5% PBS-Milk was added and incubated at room temperature for 2 h. The plates were washed three times with PBST. All the nanobody-Fc fusion proteins were subject to 3-fold gradient dilutions with an initial concentration of 10 μg/mL, added into each well at 30 μL/well, and incubated at room temperature for 1 hr. The plates were washed three times with PBST. The secondary antibody Goat-Anti-Human-IgG-Fc-HRP (purchased from Sigma) was diluted at 1:8000, added into each well at 30 μL/well, and incubated at room temperature for 50 min. The plates were washed three times with PBST. TMB (purchased from SurModics) was added into each well at 30 μL/well and developed at room temperature in dark for 1 min to 5 min. 2 M hydrochloric acid was added at 30 μL/well to stop the reaction. The OD450 absorbance value was read by a microplate reader.

[3] = molecular target: T2, recombinant human PD-1-his protein; experiment: ELISA; PD-1-his coated 2 µg/mL, anti-human IgG Fc-HRP
Procedure: (§2) The plates were washed three times with PBST. 5% PBS-Milk was added and incubated at room temperature for 2 h. The plates were washed three times with PBST. All the nanobody-Fc fusion proteins were subject to 3-fold gradient dilutions with an initial concentration of 10 μg/mL, added into each well at 30 μL/well, and incubated at room temperature for 1 hr. The plates were washed three times with PBST. The secondary antibody Goat-Anti-Human-IgG-Fc-HRP was diluted at 1:8000, added into each well at 30 μL/well, and incubated at room temperature for 50 min. The plates were washed nine times with PBST. TMB was added into each well at 30 μL/well and developed at room temperature in dark for 1 min to 5 min. 2 M hydrochloric acid was added at 30 μL/well to stop the reaction. The OD450 absorbance value was read by a microplate reader. Graphpad Prism software was used to fit the curve and calculate the EC₅₀ value (see Table 7).

[4] = molecular target: PD1 on Jurkat-NFAT-PD1 transgene cells; experiment: cell-based or functional assay
[5] = molecular target: T3, recombinant human PD-1-Fc-Biotin (human, UniProt Q15116 25-167, biotin (site not stated)); experiment: competitive ELISA; PD-L1-mFc coated, 0.5 µg/mL PD-1-Fc-Biotin, streptavidin-HRP
T3 construct: also called antigen protein human PD-1; not shown: Fc
T3 sequence (Q15116 25-167 limits assumed): as above
Procedure: (§3) The plates were washed three times with PBST. 5% PBS-Milk was added and incubated at room temperature for 1 hr. All the nanobody-Fc fusion proteins were subject to 3-fold gradient dilutions with an initial concentration of 10 μg/mL, added into each well at 30 μL/well, and incubated at room temperature for 1 hr. […] The well plates were washed with PBST between incubations.

[6] = molecular target: T2, recombinant human PD-1-his protein; experiment: ELISA; PD-1-his coated 2 µg/mL, anti-human IgG Fc-HRP; remark: listed apart in the source
Procedure: as §2, with “PBS-Milk” for “PBS-Milk was added”, “3-folded” for “3-fold”, “dilution” for “dilutions”, “calculate” for “calculate the”, “values.” for “value (see Table 7).”

[7] = molecular target: T3, recombinant human PD-1-Fc-Biotin; experiment: competitive ELISA; PD-L1-mFc coated, 0.5 µg/mL PD-1-Fc-Biotin, streptavidin-HRP; remark: listed apart in the source
Procedure: as §3, with “The” for “The well”

[8] = molecular target: T2, recombinant human PD-1-his protein; experiment: ELISA (second round of humanization); PD-1-his coated 2 µg/mL, anti-human IgG Fc-HRP
Procedure: as §1

B1: MHPD1-A (VHH)
VHH: QVQLVESGGGSVQVGGSLTLSCAASGSDPSIYAMGWFRQAPGKEHEFVAGIGWSAATTYYADSVKGRFGISRDNTKNTVALLMNSLKPEDTAIYYCAADLDHSGFDYWGQGTQVTVSS
notes: tag not described; also called VHH; single-domain antibody MHPD1-A
EC50 [1]: 1.71 µg/mL

B2: MHPD1-A-H10 Fc (Fc fusion, not shown: a dimerising Fc or GST; small tags and cut ends)
VHH: B1 VHH with V14P, T19R, G69T, V79L, Q113L
notes: First round of humanization of MHPD1-A; also called humanized nanobody-Fc fusion protein
EC50 [2]: 0.32 µg/mL

B3: MHPD1-A-H8 Fc (Fc fusion, not shown: a dimerising Fc or GST; small tags and cut ends)
VHH: B1 VHH with E44G, H45L
notes: as for B2
EC50 [2]: 0.2 µg/mL

B5: MHPD1-A-H6 Fc (Fc fusion, not shown: a dimerising Fc or GST; small tags and cut ends)
VHH: B1 VHH with G35M
notes: as for B2
EC50 [2]: 2.91 µg/mL

B8: MHPD1-A-H3 Fc (Fc fusion, not shown: a dimerising Fc or GST; small tags and cut ends)
VHH: B1 VHH with V79L
notes: as for B2
EC50 [2]: 0.16 µg/mL

B10: MHPD1-A-7 H Fc (Fc fusion)
chain: QVQLVESGGGLVQPGGSLRLSCATSGSRRSIYAMGWFRQAPGKGLEFVAGIGWAYATTYYADSVKGRFTISRDNTKNTLYLQMNSLRAEDTAVYYCAADLDHSGFDYWGQGTLVTVSS
notes: parent of the second round; also called parent MHPD1-A-7 H Fc; not shown: Fc
EC50 [3]: 0.135 nM
luciferase reporter gene fluorescence signal, Jurkat-NFAT-PD1 effector cells with Hep3B-OS8-PDL1 target cells (EC50) [4]: 0.07 nM
IC50 [5]: 0.316 nM
EC50 [6]: 0.149 nM
IC50 [7]: 0.778 nM

B14: MHPD1-A-H18 Fc (Fc fusion, not shown: a dimerising Fc or GST; small tags and cut ends)
VHH: B10 chain with T24A, R28D, R29P, A54S, Y55A, V93I
notes: Second round of humanization of MHPD1-A; also called humanized nanobody-Fc fusion protein
EC50 [8]: 1.29 nM

B15: MHPD1-A-H14 Fc (Fc fusion, not shown: a dimerising Fc or GST; small tags and cut ends)
VHH: B1 VHH with V14P, T19R, A80Y, L82Q, K87R, P88A, Q113L
notes: as for B14
EC50 [8]: 1.88 nM

B17: MHPD1-A-H12 Fc (Fc fusion, not shown: a dimerising Fc or GST; small tags and cut ends)
VHH: B1 VHH with V14P, T19R, G69T, V79L, K87R, P88A, Q113L
notes: as for B14
EC50 [8]: 4.32 nM

B20: Pembrolizumab (antibody, human IgG4 S228P, kappa, V domains shown)
VH: QVQLVQSGVEVKKPGASVKVSCKASGYTFTNYYMYWVRQAPGQGLEWMGGINPSNGGTNFNEKFKNRVTLTTDSSTTTAYMELKSLQFDDTAVYYCARRDYRFDMGFDYWGQGTTVTVSS
VL: EIVLTQSPATLSLSPGERATLSCRASKGVSTSGYSYLHWYQQKPGQAPRLLIYLASYLESGVPARFSGSGSGTDFTLTISSLEPEDFAVYYCQHSRDLPLTFGGGTKVEIKR
luciferase reporter gene fluorescence signal, Jurkat-NFAT-PD1 effector cells with Hep3B-OS8-PDL1 target cells (EC50) [4]: 0.091 nM

More lines, now with the values ahead:

EC50 [2]: 0.22 µg/mL
B4: MHPD1-A-H2 Fc (Fc fusion, not shown: a dimerising Fc or GST; small tags and cut ends)
VHH: B1 VHH with T19R, K87R, P88A
notes: as for B2

EC50 [2]: 0.35 µg/mL
B6: MHPD1-A-H5 Fc (Fc fusion, not shown: a dimerising Fc or GST; small tags and cut ends)
VHH: B1 VHH with A80Y, L82Q
notes: as for B2

EC50 [2]: 2.54 µg/mL
B7: MHPD1-A-H7 Fc (Fc fusion, not shown: a dimerising Fc or GST; small tags and cut ends)
VHH: B1 VHH with G35M, T75S
notes: as for B2

EC50 [2]: 0.15 µg/mL
B9: MHPD1-A-H9 Fc (Fc fusion, not shown: a dimerising Fc or GST; small tags and cut ends)
VHH: B1 VHH with V14P, T19R, K87R, P88A, Q113L
notes: also called humanized nanobody-Fc fusion protein

EC50 [3]: 0.369 nM
EC50 [8]: 0.55 nM
IC50 [5]: 1.31 nM
B11: MHPD1-A-H19 Fc (Fc fusion, not shown: a dimerising Fc or GST; small tags and cut ends)
VHH: B10 chain with T24A, R28D, R29P, A54S, Y55A
notes: Second round of humanization; also called humanized nanobody-Fc fusion protein; parent MHPD1-A-H19 Fc

EC50 [3]: 0.251 nM
luciferase reporter gene fluorescence signal, Jurkat-NFAT-PD1 effector cells with Hep3B-OS8-PDL1 target cells (EC50) [4]: 0.078 nM
IC50 [5]: 0.275 nM
B12: MHPD1-A-3 H Fc (Fc fusion, not shown: a dimerising Fc or GST; small tags and cut ends)
VHH: B10 chain with T24A, R28G, A54S

EC50 [8]: 2.29 nM
B13: MHPD1-A-H16 Fc (Fc fusion, not shown: a dimerising Fc or GST; small tags and cut ends)
VHH: B1 VHH with S11L, V14P, T19R, K87R, P88A, I93V, Q113L
notes: as for B14

EC50 [3]: 0.169 nM
luciferase reporter gene fluorescence signal, Jurkat-NFAT-PD1 effector cells with Hep3B-OS8-PDL1 target cells (EC50) [4]: 0.09 nM
IC50 [5]: 0.281 nM
B16: MHPD1-A-4 H Fc (Fc fusion, not shown: a dimerising Fc or GST)
chain: B10 chain with T24A, R28V, R29G, Y55F

EC50 [8]: 2.15 nM
B18: MHPD1-A-H15 Fc (Fc fusion, not shown: a dimerising Fc or GST; small tags and cut ends)
VHH: B10 chain with L11S, T24A, R28D, R29P, G44E, L45H, A54S, Y55A, V93I
notes: as for B14

EC50 [8]: 0.64 nM
B19: MHPD1-A-H17 Fc (Fc fusion, not shown: a dimerising Fc or GST; small tags and cut ends)
VHH: B10 chain with L11S, T24A, R28D, R29P, A54S, Y55A, V93I
notes: as for B14
